Assays:
cMetECDHis [1] = biological target: T1, cMetECDHis (human, UniProt P08581 25-932, limits assumed, biotinylated in the cross-block ELISA of Example 17); assay: cross-block ELISA; competitor 064
T1 construct: Expressed in HEK-293F cells; also called soluble cMetECDHis; biotinylated cMetECDHis
Experimental: (§1) First, the optimal coating concentrations of the tested anti-c-Met antibodies and the optimal cMetECDHis concentration were determined. Therefore, ELISA wells were coated overnight at 4° C. with anti-c-Met HuMabs serially diluted in PBS (8 μg/mL in 2-fold dilutions). Next, the ELISA wells were washed with PBST (PBS supplemented with 0.05% Tween-20 [Sigma-Aldrich, Zwijndrecht, The Netherlands]) and blocked for one hour at room temperature (RT) with PBSTC (PBST supplemented 2% [v/v] chicken serum [Gibco, Paisley, Scotland]). Subsequently, the ELISA wells were washed with PBST and incubated for one hour at RT with biotinylated cMetECDHis serially diluted in PBSTC (1 μg/mL in 2-fold dilutions). Unbound biotinylated cMetECDHis was washed away with PBST, and bound biotinylated cMetECDHis was incubated for one hour at RT with 0.1 μg/mL Streptavidin-poly-HRP (Sanquin, Amsterdam, The Netherlands) diluted in PBST.
(§2) ELISA wells were coated with anti-c-Met antibody at a sub-optimal dose as described above. After blocking of the ELISA wells, they were incubated with the predetermined concentration of biotinylated cMetECDHis in the presence of an excess of anti-c-Met antibody. The reaction was developed as described above. Residual binding was expressed as a percentage relative to the binding observed in the absence of competitor antibody.

cMetECDHis [2] = biological target: T1, cMetECDHis; assay: cross-block ELISA; competitor 068
Experimental: as §1, §2

cMetECDHis [3] = biological target: T1, cMetECDHis; assay: cross-block ELISA; competitor 045
Experimental: as §1, §2

cMetECDHis [4] = biological target: T1, cMetECDHis; assay: cross-block ELISA; competitor 035
Experimental: as §1, §2

cMetECDHis [5] = biological target: T1, cMetECDHis; assay: cross-block ELISA; competitor 008
Experimental: as §1, §2

cMetECDHis [6] = biological target: T1, cMetECDHis; assay: cross-block ELISA; competitor 006
Experimental: as §1, §2

cMetECDHis [7] = biological target: T1, cMetECDHis; assay: cross-block ELISA; competitor 181
Experimental: as §1, §2

cMetECDHis [8] = biological target: T1, cMetECDHis; assay: cross-block ELISA; competitor 098
Experimental: as §1, §2

cMetECDHis [9] = biological target: T1, cMetECDHis; assay: cross-block ELISA; competitor 024
Experimental: as §1, §2

cMetECDHis [10] = biological target: T1, cMetECDHis; assay: cross-block ELISA; competitor 005
Experimental: as §1, §2

cMetECDHis [11] = biological target: T1, cMetECDHis; assay: cross-block ELISA; competitor 069
Experimental: as §1, §2

cMetECDHis [12] = biological target: T1, cMetECDHis; assay: cross-block ELISA; competitor 062
Experimental: as §1, §2

cMetECDHis [13] = biological target: T1, cMetECDHis; assay: cross-block ELISA; competitor 101
Experimental: as §1, §2

cMetECDHis [14] = biological target: T1, cMetECDHis; assay: cross-block ELISA; competitor G11-HZ
Experimental: as §1, §2

cMetECDHis [15] = biological target: T1, cMetECDHis; assay: BLI (Octet); antibody captured, cMetECDHis in solution
Experimental: Antibody binding to cMetECDHis was analyzed by means of Bio-Layer Interferometry (BLI) technology on the Octet System (Fortebio, Menlo Park, USA). Anti-human IgG coated biosensors (Fc-specific) were used to capture anti-c-Met antibodies according to the procedure recommended by the manufacturer. cMetECDHis derived from HEK293 cells was loaded on top of the immobilized anti-c-Met antibodies by placing the loaded biosensor into a well containing 10 μg/mL cMetECDHis diluted in 10 times diluted kinetics buffer (Fortebio). The difference in reflection of light (AA, nm) of the biosensor surface due to the binding of cMetECDHis was measured in real time during approximately 10 minutes and was used by the Octet software (V4.0, Fortebio) to calculate the association constant (kₐ [1/M×s]). Next, the loaded biosensor was placed into a well containing only kinetics buffer (10 times diluted in PBS) to determine the dissociation constant (kd [1/s]). Kinetics analysis was performed to determine the affinity (KD [M]) using model 1:1 (langmuir). As a positive control, 0.2 μg/mL 5D5 IgG1 produced in HEK293 cells, was used.

cMetECDHis [16] = biological target: T1, cMetECDHis; assay: cross-block ELISA; competitor 5D5
Experimental: as §1, §2

cMetECDHis [17] = biological target: T1, cMetECDHis; assay: cross-block ELISA; competitor 058
Experimental: as §1, §2

B1: IgG1-1016-069 (antibody, V domains shown)
VH: QVQLVQSGAEVKKPGASVKVSCETSGYTFTSYGISWVRQAPGHGLEWMGWISAYNGYTNYAQKLQGRVTMTTDTSTSTAYMELRSLRSDDTAVYYCARDLRGTNYFDYWGQGTLVTVSS
VL: DIQMTQSPSSVSASVGDRVTITCRASQGISNWLAWFQHKPGKAPKLLIYAASSLLSGVPSRFSGSGSGTDFTLTISSLQPEDFATYYCQQANSFPITFGQGTRLEIK
notes: also called clone 069; TH1016-069
residual binding, % of no competitor (cMetECDHis [1]): 2.3% | residual binding, % of no competitor (cMetECDHis [2]): 10.1% | residual binding, % of no competitor (cMetECDHis [3]): 99.8% | residual binding, % of no competitor (cMetECDHis [4]): 91.7% | residual binding, % of no competitor (cMetECDHis [5]): 102% | residual binding, % of no competitor (cMetECDHis [6]): 100% | residual binding, % of no competitor (cMetECDHis [7]): 6.3% | residual binding, % of no competitor (cMetECDHis [8]): 12.5% | residual binding, % of no competitor (cMetECDHis [9]): 6.6% | residual binding, % of no competitor (cMetECDHis [10]): 102% | residual binding, % of no competitor (cMetECDHis [11]): 2.4% | residual binding, % of no competitor (cMetECDHis [12]): 2.2% | residual binding, % of no competitor (cMetECDHis [13]): 3.9% | residual binding, % of no competitor (cMetECDHis [14]): 110% | Kd (cMetECDHis [15]): 1.26 nM | koff (cMetECDHis [15]): 0.000267 s⁻¹ | kon (cMetECDHis [15]): 212000 M⁻¹ s⁻¹ | residual binding, % of no competitor (cMetECDHis [16]): 99.4% | residual binding, % of no competitor (cMetECDHis [17]): 101%

B2: anti-c-Met HuMab 181 (IgG1) (antibody, V domains shown)
VH: QVQLVQSGAEVKKPGASVKVSCKASGYTFTSYGISWVRQAPGQGLEWMGWISTYNGYTNYAQKLQGRVTMTTDTSTSTAYMELRSLRSDDTAVYYCARDLRGTAYFDYWGQGTLVTVSS
VL: DIQMTQSPSSVSASVGDRVTITCRASQGISNWLAWYQHKPGKAPKLLIYAASSLLSGVPSRFSGSGSGTDFTLTISSLQPEDFATYYCQQANSFPITFGQGTRLEIK
notes: also called TH1016-181; PC1016-181
residual binding, % of no competitor (cMetECDHis [1]): 2.1% | residual binding, % of no competitor (cMetECDHis [2]): 6.5% | residual binding, % of no competitor (cMetECDHis [3]): 96.8% | residual binding, % of no competitor (cMetECDHis [4]): 96% | residual binding, % of no competitor (cMetECDHis [5]): 98.7% | residual binding, % of no competitor (cMetECDHis [6]): 93.7% | residual binding, % of no competitor (cMetECDHis [7]): 3.6% | residual binding, % of no competitor (cMetECDHis [8]): 5.1% | residual binding, % of no competitor (cMetECDHis [9]): 4.3% | residual binding, % of no competitor (cMetECDHis [10]): 95.9% | residual binding, % of no competitor (cMetECDHis [11]): 2.2% | residual binding, % of no competitor (cMetECDHis [12]): 2% | residual binding, % of no competitor (cMetECDHis [13]): 2.4% | residual binding, % of no competitor (cMetECDHis [14]): 98.7% | Kd (cMetECDHis [15]): 2.23 nM | koff (cMetECDHis [15]): 0.000531 s⁻¹ | kon (cMetECDHis [15]): 237000 M⁻¹ s⁻¹ | residual binding, % of no competitor (cMetECDHis [16]): 94.2% | residual binding, % of no competitor (cMetECDHis [17]): 98.9%

Source: US20150329642A1 (Genmab, published 2015)
